US20080227700A1, “Compositions and Methods for Treatment of Protein Misfolding and Protein Aggregation Diseases” (priority 2004, published 2008)

Assays:
[1] = biological target: T1, ADH (Equus caballus, UniProt P00327); assay: Chaperone assay, thermal aggregation of ADH; assay type: biochemical; details: 50:1 molar ratio of peptide:ADH; 50° C., sixty minutes; light scattering λ=340 nm; no peptide = 0% protection
T1 construct: purchased
Procedure: (§1) The chaperone activity of the peptides was measured as their ability to protect against the thermal aggregation of three chaperone target proteins βH crystallin, ADH and CS in chaperone assays performed at 50° C. (FIG. 19). A non-interactive αB crystallin sequence 111HGKHEERQDE120 was used as the negative control in the chaperone assays (FIG. 19). Based on near and far UVCD, the three target proteins unfolded in the order: CS>>>ADH>>βH crystallin when they were heated at 50° C. for sixty minutes (FIGS. 15 and 16). The thermal aggregation of βH crystallin, ADH and CS was measured as light scattering at λ=340 nm in the presence and absence of each peptide. The chaperone activity of each peptide was calculated as percent protection in which the aggregation of each target protein in the absence of any peptides was set at 0% protection (FIG. 19). The interactive peptides 73DRFSVNLDVKHFS85 and 131LTITSSLSDGV141 were effective inhibitors of aggregation of all three chaperone target proteins.
(§2) A (top left): thermal aggregation of chaperone target proteins βH crystallin, ADH and CS in the absence of peptides was measured as light scattering at λ=340 nm. Each target protein was heated at 50° C. for sixty minutes in the absence or presence of one of the peptides. […] The chaperone activity of each peptide was calculated as percent protection in which the aggregation of each target protein in the absence of any peptides was set at 0% protection. The ability of the 73DRFSVNLDVKHFS85, 131LTITSSLSDGV141 and 111HGKHEERQDE120 to protect against the thermal aggregation of βH crystallin (B: top right), ADH (C: bottom left) and CS (D: bottom right) were tested in vitro (vertical bars). […] A 10:1 molar ratio of peptide:target protein was sufficient in conferring significant protection against the aggregation of CS by 73DRFSVNLDVKHFS85 and 131LTITSSLSDGV141.

[2] = system: βL crystallin; assay: Chaperone assay, thermal aggregation of βL crystallin; assay type: biochemical; details: light scattering at λ=340 nm; 1:10 target protein:peptide; comparison among five peptides
Procedure: Chaperone Assays. Chaperone assays of the five peptides were performed using previously established methods with minor modifications. Muchowski et al., J Mol Biol 289: 397-411, 1999. A 1:1 monomeric molar ratio of chaperone: target protein was determined to be the optimum ratio and all subsequent chaperone assays of the β3 mutants were performed in triplicate and at a 1:1 monomeric molar ratio of chaperone: target protein in a 96-well ELISA micro-titer plate. […] of the chaperone and βL crystallin were mixed in a total volume of 200 μL buffer (5 mM PBS, pH 7.0). Light scattering at λ=340 nm was measured using a Multiskan MCC/340 plate reader before heating (time=0). After the first reading, the plate was heated at 50° C. and readings were taken at fifteen minute intervals for one hour.
The ability of the peptides to suppress the thermal aggregation of βL crystallin was measured spectrophotometrically as light scattering at λ=340 nm from solutions containing 1:10 monomeric molar ratio of target protein: peptide.

[3] = biological target: amyloid beta (1-42) (Homo sapiens, UniProt P05067); assay: Cu+++-induced aggregation of amyloid-beta (1-42) in vitro, light scattering; assay type: biochemical; details: 100 mM Cu+++, 360 nm; for preventing the Cu+++-induced aggregation of amyloid-beta: 1:1 and 1:10 molar ratio of amyloid-beta to peptide; for preventing the Cu+++ induced aggregation of amyloid-beta: 10:1 molar ratio of amyloid-beta to peptide
Procedure: In vitro assays were also performed to measure the ability of the human αB crystallin derived peptides identified in Example 1 to inhibit aggregation of Cu^+++-induced amyloid beta (1-42) aggregation. Aggregation assays were performed using routine procedures, in the presence or absence of a synthesized peptide identified in Example 1, in the presence of 100 mM Cu^+++. Aggregation was measured spectrophotometrically as light scattering at a wavelength of 360 nm. Aggregated amyloid-beta was assigned a value of 100% aggregation and used to normalize aggregation in the presence of synthesize peptides.
Aggregation was measured spectrophotometrically as light scattering at a wavelength of 360 nm. Aggregated amyloid-beta was assigned a value of 100% aggregation and used to normalize aggregation in the presence of synthesize peptides. Aggregation was plotted as a bar graph with the standard error for duplicate experiments. The 1st vertical bar is the scattering measured for aggregated amyloid-beta (100% aggregation) in the presence of 100 mM Cu^+++. The 2nd-4th vertical bars is the scattering from amyloid-beta in the presence of wild type recombinant human αB crystallin. The 5th-13th vertical bars are the scattering of amyloid-beta in the presence of the synthetic peptides, DRFSVNLDVKHFS or LTITSSLSDGV or HGKHEERQDE at selected concentrations. A prefix of 10× represents a 10:1 molar concentration of amyloid-beta to either wild type αB crystallin or its peptides. A prefix of 1X represents a 1:1 molar concentration of amyloid-beta to either wt αB crystallin or its peptides. A prefix of 0.1× represents a 1:10 molar concentration of amyloid-beta to either wt αB crystallin or its peptides.

[4] = system: βH crystallin; assay: Chaperone assay, thermal aggregation of βH crystallin; assay type: biochemical; details: 50:1 molar ratio of peptide:βH crystallin; 50° C., sixty minutes; light scattering λ=340 nm; no peptide = 0% protection
Procedure: as §1, §2

[5] = biological target: Aβ (Homo sapiens, UniProt P05067); assay: Aβ ThioflavinT fluorescence (fibrillization of Aβ); assay type: biochemical; details: 1:10 Aβ:peptide; for effect on the fibrillization of Aβ: ThioflavinT fluorescence after 72 hrs, comparison among αB crystallin and five peptides
Procedure: Aβ Thioflaviin T fluorescence. Aβ fibrils were grown in the presence and absence of αB crystallin and peptides in conditions similar to that previously described for the presence of αB crystallin. Bakthisaran et al., Biochem J, 2005. Peptides were dissolved to 9.1 mM in trifluorethanol (TFE) and diluted to 0.91 mM stock solutions in 50 mM PBS, 100 mM NaCl, pH 7.4. 3.5 mg of ThioflavinT was dissolved in 100 μl of 50 mM Glycine pH 8.5. A stock solution of 1 mg/ml (0.22 mM) Aβ was prepared. 20 μl Aβ, 50 μl chaperone, 2 μl ThioflavinT was mixed with 28 μl 50 mM PBS, 100 mM NaCl, pH 7.4. Fluorescence was read using a Beckman Coultier DTX 880 multimode detector. Samples were heated at 50° C. for 72 hours and fluorescence was read again.
(§3) The fibrillization of Aβ was measured as fluorescence of the fluorescent dye ThioflavinT from solutions containing 1:10 monomeric molar ratio of Aβ:peptide. In the absence of Aβfibrils, ThioflavinT had little or no fluorescence. The fluorescence of the ThioflavinT bound to Aβ fibrils in the absence of any other molecule after 72 hrs was set to 100%. […] Fibril formation=ΔfluorescenceAβ (with chaperone)*100/ΔfluorescenceAβ (without chaperone).

[6] = as provided by manufacturer (Mimotopes); cited from earlier work
[7] = biological target: T2, CS (Sus scrofa, UniProt P00889); assay: Chaperone assay, thermal aggregation of CS; assay type: biochemical; details: 10:1 molar ratio of peptide:CS; 50° C., sixty minutes; light scattering λ=340 nm; no peptide = 0% protection
T2 construct: purchased
T2 sequence (P00889 28-464): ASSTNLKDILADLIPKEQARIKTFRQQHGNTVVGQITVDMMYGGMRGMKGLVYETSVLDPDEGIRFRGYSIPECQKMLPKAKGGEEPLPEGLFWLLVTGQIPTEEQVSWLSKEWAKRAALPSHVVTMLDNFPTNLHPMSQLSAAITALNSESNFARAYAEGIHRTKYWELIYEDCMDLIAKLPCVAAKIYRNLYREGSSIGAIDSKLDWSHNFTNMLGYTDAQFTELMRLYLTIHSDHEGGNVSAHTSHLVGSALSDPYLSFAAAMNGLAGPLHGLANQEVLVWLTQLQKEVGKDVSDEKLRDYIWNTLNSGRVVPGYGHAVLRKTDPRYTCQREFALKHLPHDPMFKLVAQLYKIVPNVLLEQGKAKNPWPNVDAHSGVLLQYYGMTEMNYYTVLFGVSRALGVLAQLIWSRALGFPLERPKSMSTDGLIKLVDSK
Procedure: as §1
A (top left): thermal aggregation of chaperone target proteins βH crystallin, ADH and CS in the absence of peptides was measured as light scattering at λ=340 nm. […] The chaperone activity of each peptide was calculated as percent protection in which the aggregation of each target protein in the absence of any peptides was set at 0% protection. […]

[8] = biological target: T3, γD crystallin (Homo sapiens, UniProt P07320); assay: γD crystallin ThioflavinT fluorescence (fibrillization of γD crystallin); assay type: biochemical; details: ThioflavinT; 50° C. for 72 hours; 1:1 γD crystallin:peptide; no chaperone 888,803,840
T3 sequence (P07320 1-174): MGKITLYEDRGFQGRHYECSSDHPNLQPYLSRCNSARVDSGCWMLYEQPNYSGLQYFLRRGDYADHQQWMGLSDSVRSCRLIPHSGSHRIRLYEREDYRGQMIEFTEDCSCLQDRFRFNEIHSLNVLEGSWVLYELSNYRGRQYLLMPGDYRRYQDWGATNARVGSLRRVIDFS
Procedure: γD crystallin Thioflaviin T fluorescence. γD crystallin fibrils were formed in a similar way to that of γ crystalline. Meehan et al., J Biol Chem 279: 3413-3419, 2004. Peptides were dissolved to […] IN tfe AND DILUTED to 0.91 mM stock solutions in 10% TFE, pH 2.0.
3.5 mg of ThioflavinT was dissolved in 100 μL of 50 mM Glycine pH 8.5. A stock solution of 1 mg/ml (0.22 mM) Aβ was prepared. 20 μl Aβ, 5 μl chaperone, 2 μl ThioflavinT was mixed with 73 μL 10% TFE, pH 2.0. Fluorescence was read using a Beckman Coultier DTX 880 multimode detector. Samples were heated at 50° C. for 72 hours and fluorescence was read again.
as §3, with “γD crystallin” for “Aβ”, “1:1” for “1:10”, “γD crystallin:peptide.” for “Aβ:peptide.”, “fibrils” for “Aβfibrils,”, “formation=ΔfluorescenceγD crystallin” for “formation=ΔfluorescenceAβ”, “chaperone)*100/ΔfluorescenceγD crystallin” for “chaperone)*100/ΔfluorescenceAβ”

T1 sequence (P00327 whole entry): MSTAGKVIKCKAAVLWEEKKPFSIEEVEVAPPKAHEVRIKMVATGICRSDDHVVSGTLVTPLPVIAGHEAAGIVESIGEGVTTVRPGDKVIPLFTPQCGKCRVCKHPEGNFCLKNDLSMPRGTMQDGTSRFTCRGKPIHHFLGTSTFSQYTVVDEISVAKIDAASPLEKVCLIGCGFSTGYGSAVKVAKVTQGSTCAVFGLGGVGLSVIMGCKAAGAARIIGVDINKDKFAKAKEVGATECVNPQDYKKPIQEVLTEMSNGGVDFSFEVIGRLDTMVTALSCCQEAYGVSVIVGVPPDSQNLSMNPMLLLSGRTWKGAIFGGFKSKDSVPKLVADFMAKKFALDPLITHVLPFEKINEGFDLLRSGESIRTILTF

Row | Sequence | percent protection against thermal aggregation of ADH [1] | effect on the thermal aggregation of βL crystallin (chaperone activity) [2] | preventing the Cu+++-induced aggregation of amyloid-beta [3] | preventing the Cu+++ induced aggregation of amyloid-beta [3] | percent protection against thermal aggregation of βH crystallin [4] | effect on the fibrillization of Aβ [5] | Hydrophobicity [6] | percent protection against thermal aggregation of CS [7] | Δfluorescence (γD crystallin) [8] | Δfluorescence (Aβ) ([5]; ThioflavinT, 50° C. for 72 hours, no chaperone 1,324,974,048)
1 | DRFSVNLDVKHFS | approximately 30% | slightly lower than the HG peptide | equally effective | less effective | approximately 30% | strongest effect | – | – | – | –
2 | HFSPEELK [Peptide 42] | – | – | – | – | – | – | 0.25 | – | – | –
3 | HGKHEERQDE | No protection | strongest effect | equally effective | less effective | No protection | weakest effect | – | partial protection | – | –
4 | LTITSSLSDGV | approximately 30% | slightly lower than the HG peptide | equally effective | less effective | approximately 30% | – | – | – | 675,352,992 | 352,301,312
